Source: patent US20190022241A1 (AbbVie / Abbott, published 2019)

T1: extracellular domain of cynomolgus SEZ6 on yeast (cynomolgus, UniProt Q53EL9 23-925 (human entry))
T1 construct: yeast display; the whole entry is named; also called cSEZ6; cynomolgus SEZ6 ECD
T1 chain: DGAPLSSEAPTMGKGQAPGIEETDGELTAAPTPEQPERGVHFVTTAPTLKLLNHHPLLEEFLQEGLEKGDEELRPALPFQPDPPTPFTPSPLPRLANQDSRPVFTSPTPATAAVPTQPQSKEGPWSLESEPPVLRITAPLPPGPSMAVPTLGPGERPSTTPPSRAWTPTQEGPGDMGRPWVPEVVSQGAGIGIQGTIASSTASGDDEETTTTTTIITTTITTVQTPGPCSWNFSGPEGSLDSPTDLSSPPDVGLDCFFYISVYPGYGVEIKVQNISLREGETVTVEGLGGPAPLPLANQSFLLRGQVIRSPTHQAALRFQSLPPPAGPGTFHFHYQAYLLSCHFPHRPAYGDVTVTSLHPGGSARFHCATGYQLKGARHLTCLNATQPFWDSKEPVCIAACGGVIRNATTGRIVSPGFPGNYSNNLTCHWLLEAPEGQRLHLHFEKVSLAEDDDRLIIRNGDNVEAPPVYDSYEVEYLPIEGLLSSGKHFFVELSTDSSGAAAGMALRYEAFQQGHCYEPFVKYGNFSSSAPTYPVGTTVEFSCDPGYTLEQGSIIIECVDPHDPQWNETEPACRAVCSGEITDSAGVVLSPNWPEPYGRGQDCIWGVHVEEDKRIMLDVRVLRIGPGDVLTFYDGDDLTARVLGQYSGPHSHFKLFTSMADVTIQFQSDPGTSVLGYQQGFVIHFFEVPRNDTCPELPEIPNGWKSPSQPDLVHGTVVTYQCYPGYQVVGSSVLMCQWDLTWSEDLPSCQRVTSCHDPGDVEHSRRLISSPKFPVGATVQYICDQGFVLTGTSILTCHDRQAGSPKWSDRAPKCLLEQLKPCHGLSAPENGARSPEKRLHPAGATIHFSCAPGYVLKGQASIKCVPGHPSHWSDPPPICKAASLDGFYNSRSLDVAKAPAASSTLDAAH

T2: rSEZ6-ECD-His (rat, UniProt Q7TSK2 20-922 (mouse entry))
T2 construct: the whole entry is named; also called rat recombinant SEZ6-His; rat SEZ6 ECD
T2 chain: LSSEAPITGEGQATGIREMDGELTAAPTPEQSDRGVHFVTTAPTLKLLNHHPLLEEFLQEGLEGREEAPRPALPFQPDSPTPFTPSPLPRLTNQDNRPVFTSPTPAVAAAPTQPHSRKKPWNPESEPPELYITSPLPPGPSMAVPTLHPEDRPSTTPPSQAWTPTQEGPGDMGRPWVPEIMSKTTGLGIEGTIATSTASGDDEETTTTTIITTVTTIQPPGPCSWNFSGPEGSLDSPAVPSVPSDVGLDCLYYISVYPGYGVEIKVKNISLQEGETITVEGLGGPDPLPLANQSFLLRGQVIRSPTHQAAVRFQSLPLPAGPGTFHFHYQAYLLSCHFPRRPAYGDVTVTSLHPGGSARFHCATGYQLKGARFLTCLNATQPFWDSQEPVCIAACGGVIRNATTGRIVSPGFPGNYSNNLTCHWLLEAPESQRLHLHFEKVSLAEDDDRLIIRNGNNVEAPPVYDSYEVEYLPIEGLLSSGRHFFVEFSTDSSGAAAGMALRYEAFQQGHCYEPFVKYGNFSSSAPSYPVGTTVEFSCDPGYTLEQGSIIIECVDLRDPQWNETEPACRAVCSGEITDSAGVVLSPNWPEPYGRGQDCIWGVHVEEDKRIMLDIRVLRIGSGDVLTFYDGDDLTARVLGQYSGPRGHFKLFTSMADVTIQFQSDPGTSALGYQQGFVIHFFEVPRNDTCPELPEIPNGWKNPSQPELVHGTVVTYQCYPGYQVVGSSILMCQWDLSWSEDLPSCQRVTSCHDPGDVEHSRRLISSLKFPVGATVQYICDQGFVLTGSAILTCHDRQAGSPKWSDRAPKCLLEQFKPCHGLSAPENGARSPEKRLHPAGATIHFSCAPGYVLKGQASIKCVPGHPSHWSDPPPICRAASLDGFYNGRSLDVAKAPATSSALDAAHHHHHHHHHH


How the values were obtained:
human SEZ6L2 ECD-His = target: T3, human SEZ6L2 ECD-His (human, UniProt Q6UXD5 28-843); assay: ELISA on plates coated with SEZ6L2 protein
T3 construct: whole entry named
Protocol: To determine cross reactivity to family member proteins, SEZ6L and SEZ6L2, an ELISA-based assay was used. Plates were coated with SEZ6, SEZ6L, or SEZ6L2 proteins at 0.2 μg/mL in PBS overnight. After washing with PBS containing 0.05% (v/v) Tween 20 (PB ST), the wells were blocked with 2% (w/v) BSA in PBS (PB SA), 100 μL/well for 1 hour at room temperature. Antibody was then added at 1 μg/mL in 100 μL PBSA for 1 hour at room temperature. After washing with PBST, 100 μL/well HRP-labeled goat anti-mouse IgG diluted 1:2,000 in PBSA for 1 hour at room temperature. […] After developing, an equal volume of 2M H₂SO₄ was added to stop substrate development and analyzed by spectrophotometer at OD 450.

[1] = target: T1, extracellular domain of cynomolgus SEZ6 …; assay: flow cytometry, yeast displaying cynomolgus SEZ6 ECD, 5 ug/mL antibody
Protocol: Briefly 1×10⁵ cells per well of Neuro2a, RIN-5mF, or yeast displaying cynomolgus SEZ6 cells were incubated for 30 minutes with 50 μL PBS (2% FCS) buffer with 5 μg/mL antibody. […] After incubating for 15 minutes cells were washed twice with the PBS buffer and re-suspended in the same with DAPI for flow cytometry analysis of Neuro2a and Rin-m5F or buffer without DAPI for flow cytometric analysis of yeast cells with cSEZ6.

rSEZ6-ECD-His = target: T2, rSEZ6-ECD-His; assay: bio-layer interferometry (ForteBio RED) or surface plasmon resonance (Biacore 2000) on rat SEZ6-His; the table does not say which; column Rat XR (Kd, nM)
Description: Various methods were used to analyze the binding and immunochemical characteristics of selected SEZ6 modulators generated as set forth above.

T3 sequence (Q6UXD5 other isoform, or with tags, fused parts or gaps): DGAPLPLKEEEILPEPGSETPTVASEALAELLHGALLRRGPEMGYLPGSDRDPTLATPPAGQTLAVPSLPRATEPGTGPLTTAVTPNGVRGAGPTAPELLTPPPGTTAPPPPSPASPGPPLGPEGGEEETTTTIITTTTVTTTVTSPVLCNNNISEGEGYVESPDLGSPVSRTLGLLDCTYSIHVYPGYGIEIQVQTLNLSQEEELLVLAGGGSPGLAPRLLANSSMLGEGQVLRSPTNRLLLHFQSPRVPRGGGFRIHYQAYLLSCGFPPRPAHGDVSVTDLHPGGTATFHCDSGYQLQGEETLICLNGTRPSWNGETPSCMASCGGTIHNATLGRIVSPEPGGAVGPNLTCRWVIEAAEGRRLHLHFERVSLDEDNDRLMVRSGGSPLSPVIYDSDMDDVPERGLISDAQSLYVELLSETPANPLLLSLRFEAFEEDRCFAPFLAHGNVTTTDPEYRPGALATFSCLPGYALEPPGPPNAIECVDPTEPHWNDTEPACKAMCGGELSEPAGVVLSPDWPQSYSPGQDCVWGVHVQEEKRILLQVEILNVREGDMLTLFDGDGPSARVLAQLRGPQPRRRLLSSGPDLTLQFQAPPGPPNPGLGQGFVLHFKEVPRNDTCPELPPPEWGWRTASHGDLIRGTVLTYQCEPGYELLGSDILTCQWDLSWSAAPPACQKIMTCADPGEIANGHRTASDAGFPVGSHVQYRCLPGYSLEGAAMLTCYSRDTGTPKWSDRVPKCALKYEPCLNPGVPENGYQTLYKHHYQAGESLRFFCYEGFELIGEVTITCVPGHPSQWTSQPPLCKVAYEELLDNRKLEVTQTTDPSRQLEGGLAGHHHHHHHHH

binding result (human SEZ6L2 ECD-His) | binding result [1] | Kd (rSEZ6-ECD-His) [nM] | Binder
no binding (tested: 1 µg/mL) | binds | 79.5 | SC17.34 (antibody, V domains shown, murine mAb) VH: EVQLQQSGPELVKPGSSVKISCKASGYTFTDYNMDWVKQSHGKRLEWIGYIYPDNGGAGYNQKFKGKATLTVDKSSSTAYMELRSLTSEDSAVYYCSRSITTAWFAYWGQGTLVTVSA VL: DIKMTQSPSSMYASLGERVTITCKASQDINSYLSWFQQKPGKSPKTLIYRANRLVDGVPSRFSGSGSGQDYSLTISSLEYEDMGIYYCLQYDEFPPTFGGGTKLEIK
no binding (tested: 1 µg/mL) | binds | 5 | SC17.17 (antibody, V domains shown, murine mAb) VH: EVQLQQSGPEVMKPGASVKMSCKASGYTFTDYNMHWVKQNQGKSLEWIGEINPNIGGTGYNQKFKGKATLTVHKSSSTAYMELRSLTSEDSAVYYCARTYSYYSYEFAYWGQGTLVTVSA VL: QIVLTQSPAIMSASPGEKVTMTCSASSSVSYMHWYQQKSGTSPKRWIYDTSKLPSGVPARFSGSGSGTSYSLTISSMEAEDAATYYCQQWSSTPPTFGAGTKLELK
